Experimental data published in publication PMC7907450.

What was measured:
[1] = test system: 70S ribosome pretranslocation complex, deacylated tRNAfMet in P site, A site; experiment: nitrocellulose filter binding, koff/kon; conditions: 7 mM Mg2+, aminoacylated with fMet-Val dipeptide, MST: buffer TAKM7 (7 mM Mg2+; full composition not in material), 30 min at 37 C, A-site peptidyl-tRNA: buffer TAKM with 7-20 mM Mg2+
[2] = test system: 30S ribosomal subunit initiation complex with IF1, IF2, IF3 and BPY-Met-tRNAfMet; experiment: MST; conditions: MST: buffer TAKM7 (7 mM Mg2+; full composition not in material), 30 min at 37 C, A-site peptidyl-tRNA: buffer TAKM with 7-20 mM Mg2+, nitrocellulose …
[3] = test system: 30S ribosomal subunit initiation complex with IF1, IF2, IF3 and elongator BPY-Phe-tRNAPhe; experiment: MST; conditions: 60 uM amicoumacin A, MST: buffer TAKM7 (7 mM Mg2+; full composition not in material), 30 min at 37 C, A-site peptidyl-tRNA: buffer TAKM with 7-20 mM Mg2+, nitrocellulose …
[4] = test system: 30S ribosomal subunit initiation complex without IF3 (IF1, IF2, BPY-Met-tRNAfMet); experiment: MST; conditions: MST: buffer TAKM7 (7 mM Mg2+; full composition not in material), 30 min at 37 C, A-site peptidyl-tRNA: buffer TAKM with 7-20 mM Mg2+, nitrocellulose …

| Substance | Kd ([1]; 30 uM amicoumacin A) | Kd ([1]; no antibiotic) | Kd ([2]; 30 uM edeine) | Kd ([2]; 60 uM amicoumacin A) | Kd ([2]; 60 uM kasugamycin) | Kd ([2]; no antibiotic) | Kd [3] | Kd ([4]; no IF3, amicoumacin A) | Kd ([4]; no IF3, no antibiotic) |
| --- | --- | --- | --- | --- | --- | --- | --- | --- | --- |
| fMet-[14C]Val-tRNAVal | 461 nM | 688 nM |  |  |  |  |  |  |  |
| model mRNA AUG (Met-Phe) |  |  | 568 nM | 169 nM | 59 nM | 18 nM | 940 nM | 77 nM | 1280 nM |
| model mRNA UUC start codon |  |  |  | 584 nM |  |  |  | 587 nM | 1270 nM |
